Experimental data from PMC11201810 (Protein Science : A Publication of the Protein Society, 2024).
Values joined by “and” are separate entries in the source; they are usually repeats but may differ in a detail not shown here. Equal entries are not always repeated. Where two headings read alike, the source gives them in different places. Values belong to the molecule of their own block, whether it stands above or below them.

Key:
[1] = molecular target: human βB2-crystallin W196F (human) (UniProt P43320); experiment: AUC
[2] = molecular target: human βB2-crystallin W196F (human) (UniProt P43320); experiment: SEC
[3] = molecular target: the molecule itself; experiment: SEC
[4] = molecular target: the molecule itself; experiment: AUC
[5] = molecular target: the molecule itself; experiment: SEC; remark: listed apart in the source

% dimer [1]: 83.4%
% tetramer [1]: 12.7%
stoichiometry N [2]: 4 and 2
Molecule: human βB2-crystallin W196F (from UniProt P43320 1-205) (natural protein)

B1: human βB2-crystallin W151F (natural protein, UniProt P43320 1-205, looked up)
chain: MASDHQTQAGKPQSLNPKIIIFEQENFQGHSHELNGPCPNLKETGVEKAGSVLVQAGPWVGYEQANCKGEQFVFEKGEYPRWDSWTSSRRTDSLSSLRPIKVDSQEHKIILYENPNFTGKKMEIIDDDVPSFHAHGYQEKVSSVRVQSGTFVGYQYPGYRGLQYLLEKGDYKDSSDFGAPHPQVQSVRRIRDMQWHQRGAFHPSN
stoichiometry N [3]: 2
% dimer [4]: 92.2 ± 0.5%
% tetramer [4]: 2.7 ± 0.1%

B2: human βB2-crystallin W59F (natural protein, UniProt P43320 1-205, looked up)
chain: MASDHQTQAGKPQSLNPKIIIFEQENFQGHSHELNGPCPNLKETGVEKAGSVLVQAGPFVGYEQANCKGEQFVFEKGEYPRWDSWTSSRRTDSLSSLRPIKVDSQEHKIILYENPNFTGKKMEIIDDDVPSFHAHGYQEKVSSVRVQSGTWVGYQYPGYRGLQYLLEKGDYKDSSDFGAPHPQVQSVRRIRDMQWHQRGAFHPSN
stoichiometry N [5]: 4
stoichiometry N [3]: 2
% dimer [4]: 48.7 ± 0.3%
% tetramer [4]: 36.1 ± 0.4%

B3: human βB2-crystallin W82F (natural protein, UniProt P43320 1-205, looked up)
chain: MASDHQTQAGKPQSLNPKIIIFEQENFQGHSHELNGPCPNLKETGVEKAGSVLVQAGPWVGYEQANCKGEQFVFEKGEYPRFDSWTSSRRTDSLSSLRPIKVDSQEHKIILYENPNFTGKKMEIIDDDVPSFHAHGYQEKVSSVRVQSGTWVGYQYPGYRGLQYLLEKGDYKDSSDFGAPHPQVQSVRRIRDMQWHQRGAFHPSN
stoichiometry N [3]: 2 and 4
% dimer [4]: 75.5 ± 0.3%
% tetramer [4]: 22.3 ± 0.2%

B4: human βB2-crystallin W85F (natural protein, UniProt P43320 1-205, looked up)
chain: MASDHQTQAGKPQSLNPKIIIFEQENFQGHSHELNGPCPNLKETGVEKAGSVLVQAGPWVGYEQANCKGEQFVFEKGEYPRWDSFTSSRRTDSLSSLRPIKVDSQEHKIILYENPNFTGKKMEIIDDDVPSFHAHGYQEKVSSVRVQSGTWVGYQYPGYRGLQYLLEKGDYKDSSDFGAPHPQVQSVRRIRDMQWHQRGAFHPSN
stoichiometry N [3]: 2 and 4
% dimer [4]: 79.7 ± 0.6%
% tetramer [4]: 11.5 ± 0.6%
